A word on the Kd: it is the constant that tells how readily two partners part at equilibrium.

The assay addresses T1, Histidine-tagged AIMP1 (immobilised in SPR) (UniProt Q12904 1-312).
T1 sequence (looked up): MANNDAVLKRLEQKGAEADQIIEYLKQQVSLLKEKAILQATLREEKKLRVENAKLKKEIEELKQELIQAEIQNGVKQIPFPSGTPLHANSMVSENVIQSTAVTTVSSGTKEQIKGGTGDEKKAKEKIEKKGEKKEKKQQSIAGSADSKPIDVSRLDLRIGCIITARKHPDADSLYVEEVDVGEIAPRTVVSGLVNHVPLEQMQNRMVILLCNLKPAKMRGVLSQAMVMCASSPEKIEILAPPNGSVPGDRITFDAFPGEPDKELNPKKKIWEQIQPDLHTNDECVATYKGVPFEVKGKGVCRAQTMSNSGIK
Put plainly: SPR. (SPR reads the build-up and loss of mass on a sensor chip optically.)

B1: His-tagged AIMP3 (natural protein, UniProt O43324 1-174, looked up)
chain: MAAAAELSLLEKSLGLSKGNKYSAQGERQIPVLQTNNGPSLTGLTTIAAHLVKQANKEYLLGSTAEEKAIVQQWLEYRVTQVDGHSSKNDIHTLLKDLNSYLEDKVYLTGYNFTLADILLYYGLHRFIVDLTVQEKEKYLNVSRWFCHIQHYPGIRQHLSSVVFIKNRLYTNSH
For the molecule B1, binding was put at a Kd of 25.3 nM. That is a double-digit nanomolar value.

Source of the values: publication PMC5959800 (The international journal of biochemistry & cell biology, 2018).
